Experimental data published in the nanobody polyreactivity screen of Harvey et al. (2022).

Test: yeast display, Sf9 membrane polyspecificity reagent, FACS + sequencing; frameworks hold sequencing errors
Procedure, shortened: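 Polyreactivity labels are assigned by the sorting gate from which each nanobody was recovered. The gates were low and high (top ~1%), set on anti-HA fluorescence for expression and streptavidin fluorescence for reagent binding. Before sorting, galactose-induced (36–48 hours) yeast display cells were stained for 1 hour at 4 °C with 10% biotinylated, detergent-solubilized Sf9 membrane reagent.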

Sequence	polyreactivity (PSR sort gate)
QVQLVESGGGLVQAGGSLRLSCAASGFTFGFYAMGWYRQAPGKERELVAAISGSGGRTYYADSVKGRFTISRDNAKNTVYLQMNSLKPEDTAVYYCAARWQRKSNGDEDYWGQGTQVTVSS	high polyreactivity
QVQLVESGGGLVQAGGSLRLSCAASGFTFGFYAMGWYRQAPGKERELVAAISKRGGSTYYADSVKGRFTISRDNAKNTVYLQMNSLKPEDTAVYYCAAVYTQSRGWEYDYWGQGTQVTVSS	high polyreactivity
QVQLVESGGGLVQAGGSLRLSCAASGFTFGGNVMGWYRQAPGKERELVAAISSSGGSTYYADSVKGRFTISRDNAKNTVYLQMNSLKPEDTAVYYCAATTYGWWGYQYDYWGQGTQVTVSS	high polyreactivity
QVQLVESGGGLVQAGGSLRLSCAASGFTFGGYAMGCYRQAPGKESELVAAISGRGGRTYYADSVKGRFTISRDNAKNTVYLQMNSLKPEDTAVYYCAAPTNHWTRLSGDYWGQGTQVTVSS	high polyreactivity
QVQLVESGGGLVQAGGSLRLSCAASGFTFGGYAMGWYRQAPGKERELVARIRRSGGSTYYADSVKGRFTISRDNAKNTVYLQMNSLKPEDTAVYYCAAGYSRGQYRYNYWGQGTQVTVSS	high polyreactivity
QVQLVESGGGLVQAGGSLRLSCAASGFTFGHYAMGWSRQAPGKERELVAAISKSGTRTYYADSVKGRFTISRDNAKNTVYLQMNSLKPEDTAVYYCATTAYNGYDHWGQGTQVTVSS	high polyreactivity
QVQLVESGGGLVQAGGSLRLSCAASGFTFGLYAMGWYRQAPGKERELVAAITSGGRTYYADSVKGRFTISRDNAKNTVYFQMNSLNPEDSAVYYCNADFFNAYLWYPGYESGFDYWGQCTQVTVSS	low polyreactivity
QVQLVESGGGLVQAGGSLRLSCAASGFTFGNNAMGWYRQAPGKERELVAGISRTGGRTYYADSVKGRYTISRDNAKNTVYFQMNSLKPEDTGVYYCNADSTLYTGYDYWGQGTQVTVSS	high polyreactivity
QVQLVESGGGLVQAGGSLRLSCAASGFTFGNNGMGWYRQAPGKERELVATISWSGGSTYADSVKGRFTISRDNAKNTVDLQMNSLKPEDTAVYYCAARYFVYYLEVDYWGQGTQVTVSS	low polyreactivity
QVQLVESGGGLVQAGGSLRLSCAASGFTFGNYAMGWYRQAQGKERELVDAISGSGGSTYYADSVKGRFTISRYNAKNTVYLQMNSLKPEDTAVYYCAARYWVTYWPDYYYWGQGTQVTVPS	high polyreactivity
QVQLVESGGGLVQAGGSLRLSCAASGFTFGPYAMGWYRQAPGNEMELVAGITWSGASTYYADSVKGRFTISRDNAKNTVYLQMNSLNPEDSAVYYCARYYRLVSRYDYWGQGRQVTVSS	low polyreactivity
QVQLVESGGGLVQAGGSLRLSCAASGFTFGPYVKGWYRQAPGKERELVAAISKSGGSTYYADSVKGRFTISRDYAKNTVYLQMNSLKPEDTAVYYCATDYLGGGKRYYYWGQGTQVTVSS	high polyreactivity
QVQLVESGGGLVQAGGSLRLSCAASGFTFGQYAMGWYRQAPGKERELVAAIRWSGGSSYYADSVKGRFTISRDNAKNTVYLQMNSLKPEDTAVYYCAARRFDGYEYDYWGQGTQVTVSS	low polyreactivity
QVQLVESGGGLVQAGGSLRLSCAASGFTFGQYAMGWYRQAPGKERELVAAITGSGGRTYYADSVKGRFTISRDNAKNTVYLQMNSLKPEDTAVYYCNARVPLRHYSNYYWGQGTQVTVSS	high polyreactivity
QVQLVESGGGLVQAGGSLRLSCAASGFTFGRNAMGWYRQEPGKERELVATISKSGGSTYYADSVKGRFTISRDNAKNTVYVQMNSLKPEDTAVYYCADRSRRLPGDYWGQGTQVTVSS	low polyreactivity
QVQLVESGGGLVQAGGSLRLSCAASGFTFGRTVRGWYRQAPGKERELVAAISSSGGSTYYADSVKGRFTISRDNAKNTVYLQMNSLKPEDTAVYYCAAVLVSWYRNPQYDYWGQGTQVTVSS	high polyreactivity
QVQLVESGGGLVQAGGSLRLSCAASGFTFGRYALGWYRQAPGKERELVAAISFSGGRTYYADSVKGRFTISRDKAKNTVYLQMNSLKPEDTAVYYCAARRRQEHVGRSSYARYDYWGQGTQVTVSS	high polyreactivity
QVQLVESGGGLVQAGGSLRLSCAASGFTFGRYAMGWYRQAPGKERELVAGISSGGRTNYADSVKGRFTISRDNAKNTVYLQMNSLKPEDTAVYYCNARWYRYPPRVRLYYWGQGTQVTVSS	high polyreactivity
QVQLVESGGGLVQAGGSLRLSCAASGFTFGSNAMGWYRQAPGKERELVAAISYSGTRTYYADSVKGRFTISRDNAKNTVYLQMNRLKPEDTAVNYCAAGFRKTQFNVRYDYWGQGTQVTVSS	high polyreactivity
QVQLVESGGGLVQAGGSLRLSCAASGFTFGSNAMGWYRQAPGKERELVAAITWDGGSTYYADSVKGRFTISRDNAKNTVYLQMNSLKPEDTAVYYCARYLYATYGKYNYWGQGTQVTVSS	high polyreactivity
QVQLVESGGGLVQAGGSLRLSCAASGFTFGSNTMGWYRQAPGKERELVAAITTSGDSTYYADSVKGRFTISRDHAKNTVYLQMNSLKPEDTAVYYCAAERRYGRYYRLVRLLGQGTQVTVSS	high polyreactivity
QVQLVESGGGLVQAGGSLRLSCAASGFTFGSNTMGWYRQAPGKERELVAAITYTGGRTYYADSVKGRFTISRDNAKNTVYLQMNSLKPEDTAVYYCAAEYHFWSYSPGYDYWGQGTQVTVSS	high polyreactivity

Sequence	polyreactivity (PSR sort gate)
QVQLVESGGGLVQAGGSLRLSCAASGFTFGSNVMGWYRQAPGKERELVAAIRGRGGSTYSADSVKGRFTISRDNAKNTVYLQMNSLKPEDTAVYYCNAVQRYQMGYCGQGTQVTVSS	high polyreactivity
QVQLVESGGGLVQAGGSLRLSCAASGFTFGSYAMGWYRQAPGKEREFVAAIRRSGSSTYYADSVKGRFTISRDYAKNTVYLQMNSLKPEDTAVYYCAADVYRRLRRYRYYYWGQGTQVTVSS	low polyreactivity
QVQLVESGGGLVQAGGSLRLSCAASGFTFGSYAMGWYRQAPGKERELVARISSDGSTNYAVSVNGRFTISRDNAKNTVYLQMNSLKPEDTAVYYCAADPVHRFPGTGGYWGQGTQVTVSS	low polyreactivity
QVQLVESGGGLVQAGGSLRLSCAASGFTFGSYAMGWYRQAPGKERELVAVITRSGRTNYADSVKGRFTISRDNAKNTVYLLMNSLKPEDTAVYYCNADDVDDEVSPDLTEMDYWGQGTQVTVSS	low polyreactivity
QVQLVESGGGLVQAGGSLRLSCAASGFTFGSYAMGWYRQAPGKERELVAVITRSGRTNYADSVKGRFTISRDNAKNTVYLQMNSLKPEDTAVYYCNADDVDDEVSPDLTEMDYWGQGTQVTVSS	low polyreactivity
QVQLVESGGGLVQAGGSLRLSCAASGFTFGSYAMGWYRQAPGTERELVAAISCSGGSTYYADSVKGRFTISRDNAKNTVYLQMNSLKPEDTAVYYCAVRYPLYRMDYWGQGTQVTVSS	high polyreactivity
QVQLVESGGGLVQAGGSLRLSCAASGFTFGTNAMGWYRQAPGKEMELVAAITWSGGRTYYADSVKGRFTISRDNAKNTVYLQMNSRKQEDTAVYYCAKQYYRNKYEYWGQGTQVTVSS	high polyreactivity
QVQLVESGGGLVQAGGSLRLSCAASGFTFGTYAMGWYRPAPGKERELVAAITRRGDNTYYADSVKGRFTISRDNAKNTVYLQMNSLNPEDTAVYYCIAAKGGRYPDYDYWGQGTQVTVSS	high polyreactivity
QVQLVESGGGLVQAGGSLRLSCAASGFTFGTYAMGWYRQAPGKERELVASIRTDDSTYADSVKGRFTISRDNAKNTVYLQMNSLKPEDTAVYYCAVDGYVIYVYDTYDYWGQGTQVTVSS	low polyreactivity
QVQLVESGGGLVQAGGSLRLSCAASGFTFGVYAMGWYRQAPGKERDLVAAISTTVGSTYYADSVKGRFTISRDNAKNTVYLQMNSLKPEDTAVDYCAAEYTGYINYYIYEYWGQGTQVTVSS	low polyreactivity
QVQLVESGGGLVQAGGSLRLSCAASGFTFGVYAMGWYRQAPGKERELDAAISTTVGSTYYADSVKGRFTISRDNAKNTVYLQMNSLKPEDTAVYYCAAEYTGYINYYIYEYWGQGTQVTVSS	low polyreactivity
QVQLVESGGGLVQAGGSLRLSCAASGFTFGYNAMGWYRQAPGKERELVAAISRSGGRTYYADSVKGRFTISRDNAKNTVYLQMNSLKPEDTAVYYCARRYRDYGRYGYWGQGTQVTVSS	high polyreactivity
QVQLVESGGGLVQAGGSLRLSCAASGFTFGYNAMGWYRQAPGKERELVAAITSGGSTNYADSVKGRFTISRDNAKNTVYLQMNSLKPEDTAVYYCATGVRPWRKKPVEFYHRGQGTQVTVSS	low polyreactivity
QVQLVESGGGLVQAGGSLRLSCAASGFTFGYNAMGWYRQAPGKERELVAVINKSGGSTYYADSVKGRFTISRDNAKNTVYLQMNSLKPEDTAVYYCAATYNGWKRYYYWGQGTQVTVSS	high polyreactivity
QVQLVESGGGLVQAGGSLRLSCAASGFTFGYYAMGWSRQAPGKERELVAAISWSGSRTYYADSVKGRFTISRDNAKNTVYLQMNSLKPEDTAVYYCAAQRYRYLYTSTGWQRYDYYYWGQGTQVTVSS	high polyreactivity
QVQLVESGGGLVQAGGSLRLSCAASGFTFGYYAMGWYRQAPGKERELVAAINWSGVNTNYADSVKGRFTISRDNEKNTVYLQMNSLKPEDTAVYYCAADAGYDGYGYWGQGTQVTVSS	low polyreactivity
QVQLVESGGGLVQAGGSLRLSCAASGFTFGYYAMGWYRQAPGKERELVAAISSSGGSTYYADSVKGRFTISRDNAKNTVYLQMNSLKQEDTAVYYCSTGFLQNYYKYSSSFRFYYWGQGTQVTVSS	high polyreactivity
QVQLVESGGGLVQAGGSLRLSCAASGFTFGYYAMGWYRQAPGKERELVASISSGGSTNYADSVKGRFTISRDNAKNTVYLQMNSLKPEDTAVYYCNKRAYYGRYDYWGQGTQVTVSS	high polyreactivity
QVQLVESGGGLVQAGGSLRLSCAASGFTFGYYAMGWYRQAPRKERELVAAISSSSGRTHYADSVKGRFTISRDNAKNTVYLQMNSLKPEDTAVYYCAAEFYYLYYYWGQGTQVTVSS	high polyreactivity
QVQLVESGGGLVQAGGSLRLSCAASGFTFHGYTMGWYRQAPGKERELVAAITSGGGTNYADSVKGRFTISRVNAKNTVYLQKNSLKPEDTAVYYCAAVGTVPRKQRYHSYIDYDYWGQGTQVTVSS	low polyreactivity
QVQLVESGGGLVQAGGSLRLSCAASGFTFHNNVMGWYRQATGKERELVATISKSGGSTYYADSVKGRFTISRDNAKNTVYLQMNSLKPEDTAVYYCARRYRDYDYWGQGTQVTVSS	high polyreactivity
